Laboratory results: publication PMC3323551

How the values were obtained:
[1] = biological target: T1, His-OpaR (Vibrio parahaemolyticus RIMD 2210633) (UniProt Q79YV4); assay: EMSA; conditions: 1 mM MgCl2, 0.5 mM EDTA, 0.5 mM DTT, 50 mM NaCl, 10 mM Tris-HCl pH 7.5, 0.05 mg/ml poly(dI-dC), room temperature, 30 min; footprinting same buffer, then …
T1 sequence: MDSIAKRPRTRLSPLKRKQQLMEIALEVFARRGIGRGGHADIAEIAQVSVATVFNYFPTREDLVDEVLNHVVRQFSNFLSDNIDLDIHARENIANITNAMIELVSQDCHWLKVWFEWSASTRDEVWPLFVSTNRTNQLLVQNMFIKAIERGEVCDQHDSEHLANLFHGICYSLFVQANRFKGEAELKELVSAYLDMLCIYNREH

[2] = biological target: T1, His-OpaR (Vibrio parahaemolyticus RIMD 2210633); assay: DNase I footprinting; conditions: 1 mM MgCl2, 0.5 mM EDTA, 0.5 mM DTT, 50 mM NaCl, 10 mM Tris-HCl pH 7.5, 0.05 mg/ml poly(dI-dC), room temperature, 30 min; footprinting same buffer, then …

In the case of “AACCGTGAAATCCATTTACTGAGGTATTTTTCCTCATTAATTAGCAGTATAGGGTAAAAATATGAAAGCTAATGGATAATCATAAAGTAGTAGTTGGTTTTTTGCTGAGAAAGTGATTAGTAGCAATGTAACAAGTGGCATATTTGCATGCTATTGCATTTTGCAAATGCAATTTGCGAAAGTGCTGGTTAATAATGCGTCG (double strand) [qrr4 promoter fragment]”, the binding [1] is reported as “binds” and the binding [2] is reported as “binds”.
In the case of “AACTTCCAACCACATAATTGCGCAGCAAATAACCAGACATTTACACTACAAAAAACCCATAAAATACCAACAAATTAGAATTATTAACTACAAAATAACTCTATTGAGTATTATGTTAGTTTTTCAGGGTAATTTTGTCCTAGTATTCCACTTCATGCTTATTATTTATATACTACTTGCCTGCTGAGAGCTCATAAATCCAATCATACCTGCTCCAGCC (double strand) [aphA promoter fragment]”, the binding [1] is reported as “binds” and the binding [2] is reported as “binds”.
With “AGTGGGTTGAAAGTCACATCCTTTTGCGGAAAATTCTTGGGAGCGCTGCCAAATTTTCGAAAGTTTACAGCAAAACTTATCAATAATAATGACATTACTGTCTATAAATTATCCATCAGATGTTGACCTTGTGCATATGCACCATTACACTCATCACTGCTTAAAGCAATTATTAAAATAATCAATTAGGGGGTTACCCCCAACAACAACTCAAATGGCAAGGAAAATGGATATGGACTCAATTGCAAAGAGACCTAGAACTAGGC (double strand) [opaR promoter footprinting fragment]” the binding [2] was “binds”.
In the case of “AGTGGTTGCTTATGAATCAATCCCAGGAAAAGGCGAGAACAGCGAACCTTCAACTCGTTAACATTTTATTTTCATTTACATTTTGACTAACTCAATTGTTAATAAATTACCTAAATTGCATTTTGAAATTGCAGAATGCAATTAAGTTTTGTTTTTTGCAAAAATTTATATAGGCAATATCAGTTTATATGAGATCTTGTGCCCAAAAATAAAGCTTTGAAAATTGGCATGATTAATGCATAATACTTCTCGACC (double strand) [qrr2 promoter fragment]”, the binding [1] is reported as “binds” and the binding [2] is reported as “binds”.
For “GGATAAGTTCAAATTGGATCCAGCCTTAGCAGGCTCGGTTATTCTAACGACAGTGACAGATGTGGTTGGTTTTTTCGCCTTTTTGGGAACGGCGAGTTTAGTCATGCTCTAAAAAGTCCACTGTTTATTAATCAATCATTAGCATAATAGAGACAAATTGCATAACGCACTTGCAAATTGCAAAAACATTCAAAGTTTAAGCAACGTATGTCACAGAAACCAC (double strand) [qrr3 promoter fragment]”, the binding [1] was “binds” and the binding [2] was “binds”.
